These results are taken from patent US20220144916A1 (University of Texas, published 2022).

The assay addresses human IgG1 coated on ELISA plates (human, UniProt P01857-1 1-330 = IgG part). As to the kind of experiment: competition ELISA, human IgG1 coat; blocked ligand FLAG-tagged FcγRIIIA, anti-FLAG-HRP [panel B]. Background: An ELISA detects its analyte on a solid surface through an enzyme-linked reagent.

B1: HCMV viral Fcγ receptor gp34 (residues 24-182), soluble, strep and FLAG tags (receptor)
chain: SSSNAVEPTKKPLKLANYRATCEDRTRTLVTRLNTSHHSVVWQRYDIYSRYMRRMPPLCIITDAYKETTRQGGAAFACTRQNLTLYNLTVKDTGVYLLQDQYTGDVEAFYLIIHPRSFCRALETRRCFYPGPGRVVVTDSQEADRAIISDLKRQWSGLS
notes: range 24-182
With B1, the “IC50 (read off the curve)” value was around 30 nM.
